In the RNAGym collection of RNA variant scans (doi:10.1093/nar/gkz1192) one finds self-cleavage data, which are given here for 167 variants.

Sequences and labels used below:
B1: CPEB3 Ribozyme (parent)
chain: UAACAGGGGGCCACAGCAGAAGCGUUCACGUCGCAGCCCCUGUCAGAUUCUGGUGAAUCUGCGAAUUCUGCUGUAUAUCUC

The variants in the data set derive from B1. Nature of the data set: self-cleavage, relative activity (ratio to wild type); higher = more cleavage; in vitro, sequencing. An outline of the steps: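 Relative activity was defined as the cleaved/total read fraction for a variant divided by the same fraction for the unmutated ribozyme. CPEB3 self-cleaving ribozyme libraries were made by rounds of error-prone PCR, barcoded, and transcribed in vitro with T7 RNA polymerase for 5 hours at 37°C, and cleavage ran through transcription plus a 15 min DNase I step before EDTA. Illumina sequencing of template-switched reverse transcripts gave the reads, and DNA sequencing mapped the barcodes. Averages come from three batches, using variants with at least 5 reads.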
Turning to C37U U51G, the self-cleavage stood at 0.61.
Turning to A21U C29U, the self-cleavage was 0.3.
For the variant G8U G55U, the self-cleavage was found to be 0.2.
Next, U58A G70C: 0.14; U48C A64U: 0.27.
Next, A18U U54C: 0.32; A28G U43C: 0.35.
Turning to A28G U43A, the self-cleavage amounted to 0.86.
Turning to U54G U78A, the self-cleavage was 1.
Consider A21C G55C, for which the self-cleavage was determined as 0.21.
Take C14A G53A: the self-cleavage turned out to be 1.38.
Turning to G8A U80A, the self-cleavage stood at 0.29.
Regarding C32A U69C, the self-cleavage came to 0.07.
For the variant A2U C39A, the self-cleavage came to 0.42.
As for A65G C79G, the self-cleavage was 0.74.
Next, A15G A47G: 0.87; A3G U48G: 0.54.
Consider C37A U72C, for which the self-cleavage was found to be 0.33.
Regarding U41C U51A, the self-cleavage was 1.06.
The figure for A45U G70A is 0.29; for A21G G33A it is 0.33.
For C17A U66C, the self-cleavage came out at 0.07.
As for G8C U80G, the self-cleavage came out at 0.24.
As to C23G U67A, the self-cleavage amounted to 0.25.
The figure for U1A U78A is 0.99.
Next, U1G U41A: 0.3; C34A U80G: 0.33; C14A A18U: 0.49.
In the case of G36U U74C, the self-cleavage came to 0.31.
For the variant A21C U78C, the self-cleavage stood at 0.37.
On to G63A C81U, for which the self-cleavage was 1.07.
The figure for A35G U74C is 1.29; for A2G C29U it is 0.24; for A35U G36U it is 0.1.
As to A15U U60C, the self-cleavage was 0.31.
In the case of U43A U60A, the self-cleavage was found to be 0.53.
For U31A A35G, the self-cleavage came out at 1.25.
Consider U31C U69G, for which the self-cleavage amounted to 0.41.
As for C32A U58A, the self-cleavage is 0.37.
In the case of A21G U72G, the self-cleavage is 0.53.
For the variant U25C G36U, the self-cleavage is 0.16.
The figure for A5G G36A is 0.29.
Consider A3G A20C, for which the self-cleavage stood at 0.75.
Take C12U U31A: the self-cleavage turned out to be 1.11.
As for G30U G70C, the self-cleavage worked out at 0.15.
For A35U G70A, the self-cleavage was found to be 0.2.
With G30C, the self-cleavage amounted to 0.28.
As for U69G U80G, the self-cleavage is 0.61.
In the case of G19U A65U, the self-cleavage is 0.09.
On to U67C G73U, for which the self-cleavage turned out to be 0.46.
Next, C14A U54A: 1.19.
For the variant C17U U43C, the self-cleavage was 0.41.
For G8A A64U, the self-cleavage came out at 0.27.
Regarding A15U U26C, the self-cleavage was found to be 0.25.
Regarding G42U U67C, the self-cleavage was 0.08.
With A35G C38G, the self-cleavage is 0.96.
For the variant U72A U74A, the self-cleavage was 1.34.
In the case of U54A G55U, the self-cleavage stood at 1.15.
For the variant U26C U80A, the self-cleavage worked out at 0.51.
For the variant A45U U80C, the self-cleavage worked out at 0.62.
As to G36C U49A, the self-cleavage was determined as 0.17.
For the variant A28U A75U, the self-cleavage amounted to 0.99.
Next, C17U U72C: 0.74; A21G G42A: 0.25; A21G U31A: 0.33.
Take U78C U80A: the self-cleavage came out at 1.2.
On to A45U U76C, for which the self-cleavage stood at 0.49.
For C34A U67A, the self-cleavage came to 0.33.
For the variant U54A U76C, the self-cleavage was found to be 1.04.
Regarding A21U C68U, the self-cleavage is 0.44.
G8U A64G: the self-cleavage came to 0.2.
Consider G8U A64U, for which the self-cleavage came to 0.08.
As for G7C U72C, the self-cleavage worked out at 0.37.
For the variant C50A U76A, the self-cleavage was 0.65.
With A5U G55U, the self-cleavage came to 1.15.
Regarding A77G U80A, the self-cleavage worked out at 1.18.
Take G24A A45C: the self-cleavage is 0.36.
Turning to A18C U49C, the self-cleavage was found to be 0.29.
Next, A20U U49C: 0.3.
As for A57G C62U, the self-cleavage was determined as 0.33.
For C59A U72C, the self-cleavage was 0.34.
A20U U74G: the self-cleavage was 0.55.
In the case of A5C A64U, the self-cleavage was 1.
The figure for A47G U66A is 0.45.
Consider U51C U80G, for which the self-cleavage was determined as 1.17.
Regarding C4A C44U, the self-cleavage is 0.33.
For C59A U76G, the self-cleavage is 0.33.
As for C38A G73U, the self-cleavage is 0.91.
Regarding A20G U76C, the self-cleavage turned out to be 0.92.
In the case of G24C, the self-cleavage was found to be 0.31.
Next, A2G U51A: 0.64.
Next, A15C U41G: 0.15.
The figure for C14A C17G is 0.44; for C23G U60C it is 0.07; for A45G C59U it is 0.62.
As to A5C A56G, the self-cleavage came out at 0.75.
Regarding G8U U78A, the self-cleavage was 0.21.
On to U60A G61U, for which the self-cleavage is 0.38.
Consider C40U A45G, for which the self-cleavage is 0.55.
For the variant U51A U74C, the self-cleavage is 1.21.
In the case of G9U A57G, the self-cleavage worked out at 0.25.
Take C11U A21G: the self-cleavage was determined as 0.28.
For the variant G24A U43C, the self-cleavage came out at 0.32.
Next, C14G U48C: 0.47; U49A U67C: 0.3; A45G A57C: 0.24.
Turning to G7U C39U, the self-cleavage came to 0.19.
Regarding G24A A28U, the self-cleavage worked out at 0.14.
Next, A13C U43C: 0.62.
For C4U A28U, the self-cleavage was found to be 1.08.
Regarding C34G U41C, the self-cleavage worked out at 0.14.
Consider U25C U67G, for which the self-cleavage was found to be 0.11.
Consider U26C U58C, for which the self-cleavage was determined as 0.29.
In the case of G22A U67A, the self-cleavage came out at 0.32.
Turning to U26A U80C, the self-cleavage came out at 1.02.
Next, A13C U66C: 0.33; U51C A57G: 0.91; A15U C38G: 0.25.
For the variant C14U G36A, the self-cleavage was determined as 0.32.
On to G24C G63A, for which the self-cleavage stood at 0.18.
Regarding G33C U48A, the self-cleavage stood at 0.15.
A28U C59A: the self-cleavage was 0.21.
U26C U31C: the self-cleavage amounted to 0.35.
Regarding G22A A65U, the self-cleavage was found to be 0.08.
Turning to G10C C12U, the self-cleavage is 0.1.
With A3G C62U, the self-cleavage came to 0.39.
On to G16U G36A, for which the self-cleavage was 0.37.
Turning to G61A G63A, the self-cleavage turned out to be 0.84.
In the case of A75G U80G, the self-cleavage came to 1.02.
Next, A18G G52U: 0.83; A15G G19C: 0.49; G6U U67C: 0.11.
In the case of A20U U69G, the self-cleavage is 0.21.
In the case of C39G A64U, the self-cleavage was 0.35.
The figure for U74C A75G is 1.25; for A3G C38G it is 1.02.
Regarding A28C U78A, the self-cleavage worked out at 0.64.
As to G6A G19U, the self-cleavage was 0.06.
Take C40U U41G: the self-cleavage amounted to 0.16.
Take C29G U54C: the self-cleavage amounted to 0.24.
Next, G30A U54C: 0.43; U41C A65G: 0.53.
For A3G A75U, the self-cleavage stood at 1.12.
Take C12G U48G: the self-cleavage was 0.35.
Turning to A2G U43A, the self-cleavage was 1.02.
A5G C79U: the self-cleavage was determined as 0.92.
Regarding G55U A56U, the self-cleavage turned out to be 0.7.
The figure for G30C U72G is 0.16; for U51A A57G it is 0.56; for A28C A57G it is 0.45.
Take U49C A77U: the self-cleavage came to 0.37.
Take G10C U67C: the self-cleavage amounted to 0.37.
On to G61U U74C, for which the self-cleavage came to 1.19.
For C11U, the self-cleavage is 0.44.
The figure for A64U U69C is 0.29.
Turning to A5G U48A, the self-cleavage is 0.45.
The figure for U31A U51A is 0.59.
In the case of U31G C32A, the self-cleavage turned out to be 0.28.
For A13C U31A, the self-cleavage amounted to 0.38.
With C68U U69C, the self-cleavage stood at 0.43.
Regarding C68U U69A, the self-cleavage was 0.22.
On to G53U U54A, for which the self-cleavage stood at 0.98.
Next, C11G U54A: 0.28; U31A G53A: 0.53; A20G C81A: 1.09.
The figure for A13C U78C is 1.02; for A3G G63A it is 0.75.
